In PMC2764403 (Biochemistry, 2009):
Blank lines part the entries; values can stand above or below the molecule they belong to.

Columns and labels:
Assay in all cases: AUC
[1] = biological target: βB1ΔN56, murine βB1-crystallin with N-terminal residues 1-56 deleted (murine)
[2] = biological target: human βA3-crystallin (human) (UniProt P05813)
[3] = biological target: βB1ΔN47, tryptic product of murine βB1-crystallin (residues 1-47 removed) (murine)
murine βB1-crystallin = biological target: T1, murine βB1-crystallin (murine, UniProt Q9WVJ5 1-250)
T1 sequence (looked up): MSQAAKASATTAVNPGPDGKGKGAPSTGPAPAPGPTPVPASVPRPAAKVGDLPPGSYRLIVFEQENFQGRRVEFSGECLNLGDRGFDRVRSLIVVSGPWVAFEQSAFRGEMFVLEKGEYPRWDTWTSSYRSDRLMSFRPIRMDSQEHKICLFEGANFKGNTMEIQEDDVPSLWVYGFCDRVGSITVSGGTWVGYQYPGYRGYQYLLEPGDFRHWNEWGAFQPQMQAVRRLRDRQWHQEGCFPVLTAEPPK

AUC = biological target: the molecule itself

stoichiometry N [1]: 4
Molecule: βB1ΔN56, murine βB1-crystallin with N-terminal residues 1-56 deleted (domain or fragment)

Kd [2]: 200 nM
Kd [3]: 1400 nM
stoichiometry N [3]: 2
Molecule: βB1ΔN47, tryptic product of murine βB1-crystallin (residues 1-47 removed) (domain or fragment)

Kd (murine βB1-crystallin): 5000 nM
B1: βA3ΔN30, human βA3-crystallin with N-terminal residues 1-30 deleted and residue 31 replaced by glycine (domain or fragment, UniProt P05813-1 31-215, looked up)
chain: GKITIYDQENFQGKRMEFTSSCPNVSERSFDNVRSLKVESGAWIGYEHTSFCGQQFILERGEYPRWDAWSGSNAYHIERLMSFRPICSANHKESKMTIFEKENFIGRQWEISDDYPSLQAMGWFNNEVGSMKIQSGAWVCYQYPGYRGYQYILECDHHGGDYKHWREWGSHAQTSQIQSIRRIQQ
Kd (AUC): 100 nM
stoichiometry N (AUC): 2
